Experimental findings from patent US20150173367 are described below.

For the data set, the system named is RepN (N-terminal 191 residues of TYLCV Rep) (Tomato yellow leaf curl virus). Briefly: EMSA. The conditions noted are these: 10 mM Tris-HCl, 100 mM NaCl, 5 mM MgCl2, 0.1 mM ZnCl2, pH 7.5, on ice. For orientation: A gel shift assay detects complexes by their altered migration in electrophoresis.

Broadly, the Kd is the free concentration of one partner at which half of the binding sites on the other are occupied at equilibrium, for simple one-to-one binding. Higher therefore signals a looser complex.

“TYLCV replication origin DNA containing Rep-binding direct repeats” displayed a Kd of 30 nM.
